B1: Mss116p (Saccharomyces cerevisiae S288C) (protein)
chain: NHITWAVSRRLYNDGNRDQRNFGRNQRNNNSNRYRNSRFNSRPRTRSREDDDEVHFDKTTFSKLIHVPKEDNSKEVTLDSLLEEGVLDKEIHKAITRMEFPGLTPVQQKTIKPILSSEDHDVIARAKTGTGKTFAFLIPIFQHLINTKFDSQYMVKAVIVAPTRDLALQIEAEVKKIHDMNYGLKKYACVSLVGGTDFRAAMNKMNKLRPNIVIATPGRLIDVLEKYSNKFFRFVDYKVLDEADRLLEIGFRDDLETISGILNEKNSKSADNIKTLLFSATLDDKVQKLANNIMNKKECLFLDTVDKNEPEAHERIDQSVVISEKFANSIFAAVEHIKKQIKERDSNYKAIIFAPTVKFTSFLCSILKNEFKKDLPILEFHGKITQNKRTSLVKRFKKDESGILVCTDVGARGMDFPNVHEVLQIGVPSELANYIHRIGRTARSGKEGSSVLFICKDELPFVRELEDAKNIVIAKQEKYEPSEEIKSEVLEAVTEEPEDISDIVISLISSYRSCIKEYRFSERRILPEIASTYGVLLNDPQLKIPVSRRFLDKLGLSRSPIGKAMFEIRDYSSRDGNNKSYDYDDDSEISFRGNKNYNNRSQNRDYDDEPFRRSNNNRRSFSRSNDKNNYSSRNSNIY
B2: Mss116p (Saccharomyces cerevisiae S288C; S305A) (protein)
chain: B1 chain with S279A
B3: Mss116p (Saccharomyces cerevisiae S288C; R245E) (protein)
chain: B1 chain with R219E
B4: Mss116p (Saccharomyces cerevisiae S288C; T307A) (protein)
chain: B1 chain with T281A
B5: Mss116p (Saccharomyces cerevisiae S288C; Q412A) (protein)
chain: B1 chain with Q386A

Where a chain is given by its changes, count along the chain named. Names and notes keep the numbering of the source.

Substrate in the data set: Nc1ncnc2c1ncn2[C@@H]1O[C@H](COP(=O)(O)OP(=O)(O)OP(=O)(O)O)[C@@H](O)[C@H]1O
Description: ATPase assay, free ADP versus time, initial velocities. It counts as biochemical, Saccharomyces cerevisiae. The note with it: 37 °C, saturating aI5β intron RNA transcript.
As usually defined, the Km is the concentration of substrate that gives half-maximal velocity. By kcat is commonly meant the number of substrate molecules converted per active site and unit of time at saturation. For the protein B1, the Michaelis constant (Km) is 167 ± 20 µM and the catalytic constant (kcat) is 0.496 ± 0.0603 s⁻¹.

On to B2, for which the Km was 162 ± 16 µM and the catalytic constant (kcat) turned out to be 0.322 ± 0.142 s⁻¹.

For the protein B3, the Km amounted to 554 ± 153 µM and the turnover number (kcat) was 8.18 ± 0.08 ^e^, ^f.

As to B4, the Km is 180 ± 4 µM and the turnover number (kcat) turned out to be 0.061 ± 0.0045 s⁻¹.

Consider B5, for which the Michaelis-Menten constant (Km) stood at 177 ± 33 µM and the turnover number (kcat) worked out at 0.393 ± 0.0933 s⁻¹.

For the origin of these results see article PMC2878758.
